Positions count from the first letter of the chain named.
B1: ADI-48462 (antibody, V domains shown)
VH: QVQLVQSGGGVVQPGRSLRLSCAASGFTFSSYGMHWVRQAPGKGLEWVAVIWYDGSNKYYADSVKGRFTISRDNSKNTLYLQMNSLRAEDTAVYYCARDYYGSGDGYFDYWGQGTTVTVSS
VL: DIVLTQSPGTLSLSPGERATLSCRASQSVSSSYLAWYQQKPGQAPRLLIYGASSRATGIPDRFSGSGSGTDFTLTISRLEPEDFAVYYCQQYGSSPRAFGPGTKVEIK
notes: full-length IgG; also called Antibody Number 100
B2: ADI-42200 (antibody, V domains shown)
VH: EVQLVESGGGVVQPGRSLRLSCAASGLTFSTYTLHWVRQAPGKGLEWVAVISSDGGNKYYADSVKGRFTISRDSSKNTLYLQMNSLRTEDTAVYYCAGGSPDYWGQGALVTVSS
VL: EIVMTQSPATLSLSPGERGTLSCRTSQSVSSFLAWYQQKPGQAPRLLMYDASNRATGIPARFSGSGSGTDFTLTISSLEPEDFAVYYCQQRSNWPYTFGQGTKVDIK
notes: full-length IgG; also called Antibody Number 102
B3: ADI-42181 (antibody, V domains shown)
VH: EVQLVESGGGLVQPGGSLRLSCAASGFTFSNYWMNWVRQAPGKGLEWVANIKQDGSEKYYVDSVKGRFTISRDNAKNSLYLQMNSLRAEDTAVYYCARKLSYSSGWYYFDYWGQGTLVTVSS
VL: DIVMTQTPATLSVSPGERATLSCRASQSVSSNVAWYQQKPGQAPRLLIHGASTRATGIPARFSGSGSGTEFTLTISSLQSEDFAVYYCQQYNNWPPLTFGGGTKLEIK
notes: full-length IgG
B4: ADI-50203 (antibody, V domains shown)
VH: EVQLVESGGGVVQPGRSLRLSCVPSGFTFSSYAMHWVRQAPGKGLEWVAMMSYDGGDKNYADSVKGRFTISRDNSKNTLYLQMRSLRAEDTAIYYCARAYDSRGYYYIEHWGQGTLVTVSS
VL: GIQLTQSPSTLSASVGDRVTITCRASQSVSDWLAWYQQKPGRAPNLLIYRASSLQSGVPSRFSGSGSGTEFTLTINSLQPDDFATYYCQQYKTYWTFGQGTKVEIK
notes: full-length IgG; also called Antibody Number 103
B5: ADI-42225 (antibody, V domains shown)
VH: QVQLQESGPGLVKPSGTLSLTCAVSGGSITSSNWWSWVRQPPGKGLEWIGDIYHSGSTSYNPSLKSRVTISVDKSKNHFSLKLTSVTAADTAVYYCARIAAGYSTSWYYFDYWGQGTLVTVSS
VL: QSALTQPPSVSAAPGQKVTISCSGSSSNIGNSYVSWYQQVPGTAPKLLIYDNNKRPSGIPDRFSGSKSGTSATLGITGLQAGDEADYYCGTWDTSLSAGRVFGRGTKLTVL
notes: full-length IgG; also called Antibody Number 10
B6: ADI-49039 (antibody, V domains shown)
VH: QVQLQESGPGLVKPSETLSLTCAVSGYSISSGFYWGWIRQPPGKGLEWIGSMYQSGITYYNPSLKSRVTISVDTSKSQFSLKLTSVTAADTAMYYCARNAPENYYGSGRESFDIWGQGTMVTVSS
VL: QSVLTQPPSVSAAPGQKVTISCSGSSSNIGNNYVSWYQQLPGAAPKLLIYDNKKRPSGIPDRFSGSASGTSATMGITGLQTGDEADYYCGTWDSSLSAWVFGGGTKVTVL
notes: full-length IgG; also called Antibody Number 1
B7: ADI-42229 (antibody, V domains shown)
VH: B6 VH with Q54H, S77N, M120T
VL: B6 VL with L4V, L40F, G42R, A43T, M74L
notes: full-length IgG; also called Antibody Number 3
B8: ADI-42149 (antibody, V domains shown)
VH: QVQLVQSGAEVRKPGASVKVSCKASGYTFTSYGISWVRQAPGQGLEWMGWISTYNGNTNYAQKLQGRVTMTTDTSTSTAYMELRSLRSDDTAVYYCAREIDSNYVFDYWGQGTLVTVSS
VL: QSVLTQPASVSGSPGQSITISCTGTSSDVGGYNYVSWYQQHPGKAPKLMIYEVSNRPSGVSNRFSGSKSGNTASLTISGLQAEDEADYYCSSYTSSGTNIFGTGTKLTVL
notes: full-length IgG
B9: ADI-45127 (antibody, V domains shown)
VH: EVQLVESGPVLVKPTETLRLTCTVSGFSLSNTKLGVSWIRQPPGKALEWLAHIFSNAEKSSSKSLKSRLSISQDTSKSLVVLTMTNMDPVDTATYFCARIPVEYGTPRGSFDTWGQGTTVTVSS
VL: QSVLTQPPSASGSPGQSVTISCAGTRSDVGGYNFVSWYQQHPGKAPKLLIYEVNKRPSGVPDRFSGSKSANTASLTVSGLQAEDEAEYFCSSYGGNNDLVFGGGTKVTVL
notes: full-length IgG; also called Antibody Number 101

Target: T1, recombinant YFV E protein (soluble E, sE; YFV Asibi strain) (Yellow fever virus, Asibi strain, UniProt Q6DV88 286-678)
T1 construct: also called YFV E antigen; YFV E monomer
Experiment: BLI monovalent (IgG on tip)

T1 sequence (Q6DV88 286-678): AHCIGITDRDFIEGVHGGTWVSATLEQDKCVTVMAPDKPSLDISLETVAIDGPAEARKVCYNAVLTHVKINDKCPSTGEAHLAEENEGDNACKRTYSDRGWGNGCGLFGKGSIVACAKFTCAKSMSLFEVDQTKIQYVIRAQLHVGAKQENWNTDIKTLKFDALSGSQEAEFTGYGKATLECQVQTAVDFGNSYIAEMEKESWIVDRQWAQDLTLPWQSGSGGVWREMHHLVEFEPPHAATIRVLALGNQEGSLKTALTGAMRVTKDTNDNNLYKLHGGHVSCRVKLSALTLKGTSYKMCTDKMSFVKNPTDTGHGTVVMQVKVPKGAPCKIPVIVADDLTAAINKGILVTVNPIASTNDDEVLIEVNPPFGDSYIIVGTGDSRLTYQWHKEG

Binder | Kd [nM]
B1 | > 100
B2 | 5.63
B3 | 31.5
B4 | 22.4
B5 | 31.5
B6 | 415
B7 | 7.87
B8 | 177
B9 | 6.69

— patent US20240218054A1 (MABLOC, published 2024)
